This note sets out measurements from article PMC11063116.

The labels stand for the following.
B1: BvHSS (homospermidine synthase) (Blastochloris viridis) (protein)
chain: MTDWPVYHRIDGPIVMIGFGSIGRGTLPLIERHFAFDRSKLVVIDPSDEARKLAEARGVRFIQQAVTRDNYRELLVPLLTAGPGQGFCVNLSVDTSSLDIMELARENGALYIDTVVEPWLGFYFDPDLKPEARSNYALRETVLAARRNKPGGTTAVSCCGANPGMVSWFVKQALVNLAADLGVTGEEPTTREEWARLAMDLGVKGIHIAERDTQRASFPKPFDVFVNTWSVEGFVSEGLQPAELGWGTFERWMPDNARGHDSGCGAGIYLLQPGANTRVRSWTPTAMAQYGFLVTHNESISIADFLTVRDAAGQAVYRPTCHYAYHPCNDAVLSLHEMFGSGKRQSDWRILDETEIVDGIDELGVLLYGHGKNAYWYGSQLSIEETRRIAPDQNATGLQVSSAVLAGMVWALENPNAGIVEADDLDFRRCLEVQTPYLGPVVGVYTDWTPLAGRPGLFPEDIDTSDPWQFRNVLVRD
B2: BvHSS (homospermidine synthase) (Blastochloris viridis; D361E/E232D) (protein)
chain: MTDWPVYHRIDGPIVMIGFGSIGRGTLPLIERHFAFDRSKLVVIDPSDEARKLAEARGVRFIQQAVTRDNYRELLVPLLTAGPGQGFCVNLSVDTSSLDIMELARENGALYIDTVVEPWLGFYFDPDLKPEARSNYALRETVLAARRNKPGGTTAVSCCGANPGMVSWFVKQALVNLAADLGVTGEEPTTREEWARLAMDLGVKGIHIAERDTQRASFPKPFDVFVNTWSVDGFVSEGLQPAELGWGTFERWMPDNARGHDSGCGAGIYLLQPGANTRVRSWTPTAMAQYGFLVTHNESISIADFLTVRDAAGQAVYRPTCHYAYHPCNDAVLSLHEMFGSGKRQSDWRILDETEIVDGIEELGVLLYGHGKNAYWYGSQLSIEETRRIAPDQNATGLQVSSAVLAGMVWALENPNAGIVEADDLDFRRCLEVQTPYLGPVVGVYTDWTPLAGRPGLFPEDIDTSDPWQFRNVLVRD
B3: BvHSS (homospermidine synthase) (Blastochloris viridis; D361E) (protein)
chain: MTDWPVYHRIDGPIVMIGFGSIGRGTLPLIERHFAFDRSKLVVIDPSDEARKLAEARGVRFIQQAVTRDNYRELLVPLLTAGPGQGFCVNLSVDTSSLDIMELARENGALYIDTVVEPWLGFYFDPDLKPEARSNYALRETVLAARRNKPGGTTAVSCCGANPGMVSWFVKQALVNLAADLGVTGEEPTTREEWARLAMDLGVKGIHIAERDTQRASFPKPFDVFVNTWSVEGFVSEGLQPAELGWGTFERWMPDNARGHDSGCGAGIYLLQPGANTRVRSWTPTAMAQYGFLVTHNESISIADFLTVRDAAGQAVYRPTCHYAYHPCNDAVLSLHEMFGSGKRQSDWRILDETEIVDGIEELGVLLYGHGKNAYWYGSQLSIEETRRIAPDQNATGLQVSSAVLAGMVWALENPNAGIVEADDLDFRRCLEVQTPYLGPVVGVYTDWTPLAGRPGLFPEDIDTSDPWQFRNVLVRD

Substrate in the series: NCCCN
As to the kind of experiment: purified protein. To be noted: 2 mM putrescine, 0.6 mM NAD+, 100 mM Tris-HCl pH 9, 50 °C.
By Km is commonly meant the concentration of substrate that gives half-maximal velocity. As a reminder, the kcat is the maximal rate divided by the concentration of active sites. By kcat/Km is commonly meant the turnover number divided by the Michaelis constant. Consider B1, for which the Km stood at 490 ± 30 µM, the turnover number (kcat) is 13.6 s⁻¹ and the kcat/Km stood at 27800 M⁻¹ s⁻¹.
B2: the Km was found to be 310 ± 20 µM, the kcat came out at 21.1 s⁻¹ and the kcat/Km is 68000 M⁻¹ s⁻¹.
For B3, the Km stood at 430 ± 60 µM, the kcat is 19.3 s⁻¹ and the kcat/Km was found to be 45000 M⁻¹ s⁻¹.
